B1: IL24: cytokine of the IL-10 family that signals through IL-20R1/IL-20R2 and IL-22R1/IL-20R2 and activates STAT3 (protein, UniProt Q13007 52-206, looked up)
Interleukin-24: QEFHFGPCQVKGVVPQKLWEAFWAVKDTMQAQDNITSARLLQQEVLQNVSDAESCYLVHTLLEFYLKTVFKNYHNRTVEVRTLKSFSTLANNFVLIVSQLQPSQENEMFSIRDSAHRRFLLFRRAFKQLDVEAALTKALGEVDILLTWMQKFYKL

Legend:
IL24-STAT3 signaling [1] = test: IL24-induced STAT3 luciferase reporter activity in HeLa-IL24HTS cells, inhibitor test; assay type: cell-based, human; conditions: 1 μM Stattic, 150 ng/mL IL24, 8 hours, vs DMSO
Description: The selected and established HeLa-4.47 cells were cultured to 20% confluency on the day of infection. After removing the culture medium, lentivirus expressing hIL22RA1, hIL20RB or hSTAT3 was mixed with a culture medium and treated to the cells. After adding 2 μg of Polybrene per 1 mL of the virus, the plate was carefully shaken for mixing. After culturing for 15 hours under the condition of 37° C. and 5% CO2, the culture medium was replaced with a fresh one. 48 hours later, the transduced cells were cultured further and recombinant HeLa-IL24HTS cells were selected by culturing for 2 weeks in a medium containing 2 μg/mL puromycin, 5 μg/mL blasticidin S and 1,000 μg/mL G418 as antibiotics. Through this experiment, HeLa-4.47-hIL22RA1-hIL20RB-hSTAT3 cells that stably express all of hIL22RA1, hIL20RB and hSTAT3 were established and named HeLa-IL24HTS.
(§1) HeLa-IL24HTS cells and HeLa-EF1a-Luc2 cells were cultured on a 96-well plate at a concentration of 2.0×10^4 cells/well, respectively. After treating the cells with a vehicle (DMSO) (no Stattic) or 1 μM Stattic (CAS No: 19983-44-9), which is a STAT3 inhibitor, while treating with 150 ng/mL IL24 and culturing for 8 hours, luciferase activity was measured using a luciferase assay system (Promega).

HeLa-EF1a-Luc2 cells = test: Luciferase reporter activity in HeLa-EF1a-Luc2 cells (background control); assay type: cell-based, human; conditions: 1 μM Stattic, 150 ng/mL IL24, 8 hours, vs DMSO
Description: Hela cells were cultured to 20% confluency on the day of infection. After removing the culture medium, lentivirus expressing Luc2 (LVX-EIP-Luc2) was mixed with a culture medium and treated to the cells. After adding 2 μg of Polybrene per 1 mL of the virus, the plate was carefully shaken for mixing. After culturing for 15 hours under the condition of 37° C. and 5% CO2, the culture medium was replaced with a fresh one. 48 hours later, the transduced cells were cultured further and recombinant HeLa-EF1a-Luc2 cells were selected by culturing for 2 weeks in a medium containing 2 μg/mL puromycin as an antibiotic.
as §1

IL24-STAT3 signaling [2] = test: Reporter activity of HeLa-IL24HTS cells treated with IL24 at different concentrations; assay type: cell-based, human; conditions: 15 ng/mL or higher IL24, 24 hours
Description: The HeLa-4.47 cells established in Test Example 2 were treated with lentivirus expressing hIL22RA1, hIL20RB or hSTAT3 and selected with 2 μg/mL puromycin, 5 μg/mL blasticidin S and 1,000 μg/mL G418 as antibiotics to obtain HeLa-4.47-hIL22RA1-hIL20RB-hSTAT3 cells (HeLa-IL24HTS) which stably express all of hIL22RA1, hIL20RB and hSTAT3. The specific process of preparing the HeLa-IL24HTS cell line was the same as described above.
After treating the prepared HeLa-IL24HTS cells with IL24 at different concentrations (0.15 ng/mL, 1.5 ng/mL, 15 ng/mL and 150 ng/mL) and culturing for 24 hours, luciferase activity was measured using a luciferase assay system (Promega). […] It can be seen that the HeLa-IL24HTS cells show strong reporter induction of 60 fold or higher in the presence of 15 ng/mL or higher IL24.

IL24-STAT3 signaling [3] = test: Luciferase activity of pGL4.47 HeLa clones co-transfected with hIL22RA1, hIL20RB and hSTAT3, with or without IL24; assay type: cell-based, human; conditions: 150 ng/mL IL24, 24 hours, clone 12 (HeLa-4.47)
Description: 2 mg of pGL4.47 (Promega, E4041), which is a STAT3 reporter plasmid, was linearized using the Pst1 restriction enzyme. The linearized plasmid was transfected into Hela cells using polyethyleneimine (Polysciences). 48 hours later, the cells were transferred to a 100-mm culture dish and only the transfected cells were selected by treating with 500 μg/mL hygromycin and culturing for 2 weeks. The selected transfected cells were cultured on a 96-well plate. The cells were dispensed at 0.5 cell per well. 33 clones were obtained by culturing further for 3 weeks. Each clone was mixed with pCMV-SPORT6-hIL22RA1 (Korea Human Gene Bank), pCMV3-hIL20RB (SinoBiological) and pCMV3-hSTAT3 (SinoBiological) at 1:1:1 for co-transfection. The transfected cells were treated or untreated with 150 ng/mL IL24. After culturing for 24 hours, luciferase activity was measured by luciferase assay. The clone with the strongest activity was established and named HeLa-4.47.
HeLa cells were transfected with pGL4.47 and selecting using hygromycin to obtain 33 clones. After co-transfecting each clone by mixing with pCMV-SPORT6-hIL22RA1, pCMV3-hIL20RB and pCMV3-hSTAT3 at 1:1:1, luciferase activity was measured using a luciferase assay system (Promega) for treatment with 150 ng/mL IL24 (IL24(+)) or absence of treatment (IL24(−)).

IL24-STAT3 signaling [4] = conditions: earlier literature reporter assay; cited from earlier work

Molecule	reporter activity inhibited (IL24-STAT3 signaling [1])	change in reporter activity (HeLa-EF1a-Luc2 cells)	reporter induction (IL24-STAT3 signaling [2]) [fold]	IL24(+)/IL24(−) ratio of luciferase activity (IL24-STAT3 signaling [3])	increase of reporter signal by IL24 (IL24-STAT3 signaling [4])
O=[N+]([O-])c1ccc2c(c1)S(=O)(=O)C=C2 [Stattic]	about 80%	no significant change			
B1			≥ 60	150-200	about 3 times
